Here are results for three molecules from PMC9364107 (The Journal of Biological Chemistry, 2022).

The target of the test is T1, SF3B1 ULM5 peptide (residues 333–351), wildtype (human, UniProt O75533-1 333-351).
T1 peptide: KRKSRWDETPASQMGGSTP
The experiment in a line: ITC. In general terms: Isothermal titration calorimetry measures the heat released or taken up as one component is titrated into another.

B1: U2AF2 UHM E394K (domain or fragment)
chain: TEVLCLMNMVLPEELLDDEKYEEIVEDVRDECSKYGLVKSIEIPRPVDGVEVPGCGKIFVEFTSVFDCQKAMQGLTGRKFANRVVVTKYCDPDSYHRRDFW
Regarding B1, the “fold reduction in binding affinity against wildtype U2AF2 UHM” value (from here on “fold reduction in binding affinity”) is about 20 fold.

B2: U2AF2 UHM K453A (domain or fragment)
chain: TEVLCLMNMVLPEELLDDEEYEEIVEDVRDECSKYGLVKSIEIPRPVDGVEVPGCGKIFVEFTSVFDCQKAMQGLTGRAFANRVVVTKYCDPDSYHRRDFW
Turning to B2, the “fold reduction in binding affinity” value is 4 fold.

B3: U2AF2 UHM E397K (domain or fragment)
chain: TEVLCLMNMVLPEELLDDEEYEKIVEDVRDECSKYGLVKSIEIPRPVDGVEVPGCGKIFVEFTSVFDCQKAMQGLTGRKFANRVVVTKYCDPDSYHRRDFW
With B3, the “fold reduction in binding affinity” value is about 100 fold.
